Tests used:
Experiment in all cases: cell-based or functional assay
Mnk2(h) = Mnk2(h) (human, UniProt Q9HBH9 1-465, limits assumed)
CDK7/cyclinH/MAT1(h) = CDK7/cyclinH/MAT1(h) (human, UniProt P50613 1-346; P51946 1-323; P51948 1-309)
MLK1(h) = MLK1(h) (human, UniProt P80192 132-413, limits assumed)
Ret(h) = biological target: T1, Ret(h) (human, UniProt P07949 658-1114, limits assumed)
T1 sequence (looked up): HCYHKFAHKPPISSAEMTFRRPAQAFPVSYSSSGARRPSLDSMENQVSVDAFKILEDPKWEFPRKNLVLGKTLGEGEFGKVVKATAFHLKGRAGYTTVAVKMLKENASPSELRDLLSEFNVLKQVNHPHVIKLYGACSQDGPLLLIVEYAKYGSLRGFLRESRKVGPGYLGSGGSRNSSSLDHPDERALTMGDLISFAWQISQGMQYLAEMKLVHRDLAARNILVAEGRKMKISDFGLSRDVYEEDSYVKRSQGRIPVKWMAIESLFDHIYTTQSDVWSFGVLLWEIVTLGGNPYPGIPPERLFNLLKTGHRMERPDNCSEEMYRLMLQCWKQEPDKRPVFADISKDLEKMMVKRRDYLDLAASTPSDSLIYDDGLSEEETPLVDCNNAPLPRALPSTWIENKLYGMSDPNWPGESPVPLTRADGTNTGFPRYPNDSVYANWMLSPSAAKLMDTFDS

Flt4(h) = Flt4(h) (human, UniProt P35916 800-1363, limits assumed)
Snk(h) = Snk(h) (human, UniProt Q9NYY3 1-685, limits assumed)
mTOR/FKBP12(h) = mTOR/FKBP12(h) (human, UniProt P42345 1362-2549; P62942 1-108)
Abl(h) = Abl(h) (human, UniProt P00519 27-1130, limits assumed)
BTK(h) = BTK(h) (human, UniProt Q06187 1-659)
WNK2(h) = WNK2(h) (human, UniProt Q9Y3S1 166-489, limits assumed)
Syk(h) = Syk(h) (human, UniProt P43405 1-635)
PDGFRα(D842V)(h) = PDGFRα(D842V)(h) (human, UniProt P16234 550-1089, limits assumed)
EGFR(T790M,L858R)(h) = EGFR(T790M,L858R)(h) (human, UniProt P00533 696-1210, limits assumed)
EphA1(h) = biological target: T2, EphA1(h) (human, UniProt P21709 569-976, limits assumed)
T2 sequence (looked up): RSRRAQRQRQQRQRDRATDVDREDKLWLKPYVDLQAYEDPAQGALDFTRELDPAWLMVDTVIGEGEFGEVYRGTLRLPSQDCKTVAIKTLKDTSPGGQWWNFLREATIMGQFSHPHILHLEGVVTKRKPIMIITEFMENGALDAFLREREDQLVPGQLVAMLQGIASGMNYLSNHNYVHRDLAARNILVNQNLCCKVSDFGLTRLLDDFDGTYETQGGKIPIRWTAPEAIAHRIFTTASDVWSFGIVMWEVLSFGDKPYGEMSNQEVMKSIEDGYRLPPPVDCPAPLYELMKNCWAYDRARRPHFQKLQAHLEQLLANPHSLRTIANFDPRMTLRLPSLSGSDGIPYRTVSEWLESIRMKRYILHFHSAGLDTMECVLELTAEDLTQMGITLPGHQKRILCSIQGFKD

DDR2(h) = biological target: T3, DDR2(h) (human, UniProt Q16832 422-855, limits assumed)
T3 sequence (looked up): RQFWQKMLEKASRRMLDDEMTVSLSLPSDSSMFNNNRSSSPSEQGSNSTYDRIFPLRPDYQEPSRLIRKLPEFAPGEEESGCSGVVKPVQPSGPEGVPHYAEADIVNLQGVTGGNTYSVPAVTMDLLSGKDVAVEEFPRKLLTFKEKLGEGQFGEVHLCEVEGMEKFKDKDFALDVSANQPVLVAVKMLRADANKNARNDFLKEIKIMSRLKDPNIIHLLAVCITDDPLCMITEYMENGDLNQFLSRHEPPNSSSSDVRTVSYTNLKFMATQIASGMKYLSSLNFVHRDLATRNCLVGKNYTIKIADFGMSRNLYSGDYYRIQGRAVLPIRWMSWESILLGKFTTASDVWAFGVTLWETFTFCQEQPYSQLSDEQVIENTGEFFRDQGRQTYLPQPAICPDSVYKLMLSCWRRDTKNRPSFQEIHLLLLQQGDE

PDGFRα(V561D)(h) = PDGFRα(V561D)(h) (human, UniProt P16234 550-1089, limits assumed)

Row | Binder | % activity, 100 µM (Mnk2(h)) | % activity, 100 µM (CDK7/cyclinH/MAT1(h)) | % activity, 100 µM (MLK1(h)) | % activity, 100 µM (Ret(h)) | % activity, 100 µM (Flt4(h)) | % activity, 100 µM (Snk(h)) | % activity, 100 µM (mTOR/FKBP12(h)) | % activity, 100 µM (Abl(h)) | % activity, 100 µM (BTK(h)) | % activity, 100 µM (WNK2(h)) | % activity, 100 µM (Syk(h)) | % activity, 100 µM (PDGFRα(D842V)(h)) | % activity, 100 µM (EGFR(T790M,L858R)(h)) | % activity, 100 µM (EphA1(h)) | % activity, 100 µM (DDR2(h)) | % activity, 100 µM (PDGFRα(V561D)(h))
1 | FAKLAARLYRKALARQLGVAA [MMI-0300] | 89% | 65% | 40% | 140% | 83% | 114% | 145% | 69% | 102% | 64% | 24% | 114% | 85% | 73% | 94% | 82%
2 | KAFAKLAARLYRKALARQLGVAA [MMI-0400] | 86% | 47% | 33% | 145% | 89% | 131% | 125% | 84% | 94% | 54% | 9% | 118% | 78% | 61% | 95% | 100%
